Reference: publication PMC3561947

Molecular target: His-tagged human polι P680A (pJRM86) (human)
Test: far-Western, overlay or dot blot

“in vitro translated 35S-labeled ubiquitin (from pBP129) (from UniProt P0CG47 1-76) (natural protein)” was tested, and the percent of wild type (% of wild type) was 40.
